The target in test [1] is T1, 生物素标记的TIGIT (Acrobiosystems, TIT-H82E5) (UniProt Q495A1).
T1 sequence (biotin-labelled (生物素标记), site not stated, looked up): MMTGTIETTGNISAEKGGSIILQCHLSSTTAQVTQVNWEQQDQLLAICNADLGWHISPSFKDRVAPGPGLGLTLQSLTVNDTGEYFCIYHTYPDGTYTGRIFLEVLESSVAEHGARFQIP
Nature of the test: competition ELISA, control IgG, inhibition of biotinylated TIGIT binding to coated CD155.

In test [2] the target is T2, TIGIT on 293T-TIGIT cells (UniProt Q495A1 22-244).
T2 construct: whole, on cells; also called 细胞膜上TIGIT; 293T-TIGIT细胞
T2 sequence (looked up): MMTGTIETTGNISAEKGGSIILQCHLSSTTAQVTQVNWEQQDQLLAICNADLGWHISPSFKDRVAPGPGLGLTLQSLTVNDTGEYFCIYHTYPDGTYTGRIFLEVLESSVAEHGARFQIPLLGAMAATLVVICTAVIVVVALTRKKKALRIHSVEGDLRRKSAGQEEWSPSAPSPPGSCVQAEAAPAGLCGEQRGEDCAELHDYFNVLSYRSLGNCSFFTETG
The test can be described thus: flow cytometry on 293T-TIGIT cells, FITC goat anti-mouse IgG detection. A general note: A flow cytometer gives signals particle by particle.

For test [3], the target named is T3, 生物素标记的TIGIT (Acrobiosystems, TIT-H82E5) (UniProt Q495A1 22-141, biotin-labelled (生物素标记), site not stated).
T3 sequence (looked up): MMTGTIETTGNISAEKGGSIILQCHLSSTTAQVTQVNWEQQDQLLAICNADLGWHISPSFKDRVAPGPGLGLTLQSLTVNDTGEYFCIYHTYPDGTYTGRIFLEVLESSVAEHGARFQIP
The test can be described thus: competition ELISA, blocking of biotinylated TIGIT binding to coated CD112.

Test [4] has as its target T3, 生物素标记的TIGIT (Acrobiosystems, TIT-H82E5). Nature of the test: competition ELISA, blocking of biotinylated TIGIT binding to coated CD155. On the technique in general: An ELISA detects its analyte on a solid surface through an enzyme-linked reagent.
For test [5], the target named is T4, 人TIGIT蛋白 (Acrobiosystems, TIT-H52H3) (human, UniProt Q495A1 22-141).
T4 construct: Bought recombinant protein coated on ELISA plates
T4 sequence (looked up): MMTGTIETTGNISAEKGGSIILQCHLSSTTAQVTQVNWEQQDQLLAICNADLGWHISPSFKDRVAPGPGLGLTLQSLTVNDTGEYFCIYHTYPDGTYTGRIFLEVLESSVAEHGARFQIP
Nature of the test: ELISA, human TIGIT protein coated at 0.5 μg/ml, goat anti-mouse IgG detection.

With IgG1 (antibody), the 抑制率(%) in test [1] was found to be 1.68%.

B1: 7D3 (antibody, V domains shown)
VH: EVQLQQSGPELVKPGASVKMSCKASGYTFTSYVMHWVKQKPGQGLEWIGYINPYNDGTKYNEKFKGKATLTSDKSSSTAYMELSSLTSEDSAVYYCARRGNGPLRVFAYWGQGTTVTVSS
VL: DIVMTQTPKFMSTSVGDRVSITCKASQDVSTAVAWYQQKPGQSPKLLIYSASYRYTGVPDRFTGSGSGTDFTFTISSVQAEGLAVYYCQQHYSTPPTFGAGTKLEIK
notes: Mouse monoclonal antibody from a hybridoma (BALB/c x SP2/0); also called 鼠源抗体; 鼠源抗TIGIT抗体7D3
One may read the EC50 as the concentration giving half of the maximal effect. Broadly, the IC50 is the concentration needed to halve the response being measured. Read a high IC50 as a need for much substance. Consider B1, for which the EC50 in test [2] came out at 0.0113 nM; in test [5] it was 0.108 nM. In addition, the IC50 in test [3] is 3.97 nM; in test [4] it was 0.804 nM.

Values taken from CN113150156A (ZHEJIANG BORUI BIOPHARMACEUTICAL CO LTD, dated 2021).
